The record followed here is patent US20240052042A1 (Novartis, published 2024).

Assay [1] concerns the target T1, human Natriuretic Peptide Receptor 1 (hNPR1) (human, UniProt P16066 33-473, limits assumed).
T1 construct: pannings used NPR1-hFc; also called NPR1-hFc
T1 sequence: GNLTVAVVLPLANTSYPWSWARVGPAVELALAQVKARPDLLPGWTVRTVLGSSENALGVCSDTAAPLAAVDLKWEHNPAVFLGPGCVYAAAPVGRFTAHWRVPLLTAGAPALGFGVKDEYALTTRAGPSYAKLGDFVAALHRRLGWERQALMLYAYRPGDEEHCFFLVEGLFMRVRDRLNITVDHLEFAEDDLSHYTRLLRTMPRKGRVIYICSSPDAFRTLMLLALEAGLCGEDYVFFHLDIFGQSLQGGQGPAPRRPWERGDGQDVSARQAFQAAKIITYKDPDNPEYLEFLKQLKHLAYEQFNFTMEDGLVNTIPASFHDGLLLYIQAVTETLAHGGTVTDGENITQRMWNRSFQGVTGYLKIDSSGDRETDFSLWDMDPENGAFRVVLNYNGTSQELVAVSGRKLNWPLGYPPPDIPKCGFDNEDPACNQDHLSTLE
Kind of assay: SET, FabCys.

Assay [2] addresses T2, hNPR1-ANP complex (human, UniProt P01160 124-151, limits assumed).
T2 construct: hNPR1 antigen in the presence of ANP; also called hNPR1 + 100 nM ANP
T2 sequence: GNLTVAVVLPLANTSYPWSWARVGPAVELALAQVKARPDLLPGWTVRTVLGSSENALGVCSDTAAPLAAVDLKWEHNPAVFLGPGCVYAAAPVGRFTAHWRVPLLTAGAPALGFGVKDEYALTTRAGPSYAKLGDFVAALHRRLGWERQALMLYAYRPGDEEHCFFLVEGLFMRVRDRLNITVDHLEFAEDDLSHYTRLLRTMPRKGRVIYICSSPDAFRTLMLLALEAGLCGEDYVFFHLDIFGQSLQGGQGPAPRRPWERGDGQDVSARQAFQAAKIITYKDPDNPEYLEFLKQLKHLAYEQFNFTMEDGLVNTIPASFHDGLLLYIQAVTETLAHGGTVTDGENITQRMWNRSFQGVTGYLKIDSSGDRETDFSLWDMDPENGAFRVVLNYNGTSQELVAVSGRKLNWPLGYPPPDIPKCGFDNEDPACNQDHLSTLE
T2 sequence (peptide): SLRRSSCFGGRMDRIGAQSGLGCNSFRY
Kind of assay: SET, FabCys.

For assay [3], the target named is T3, rat NPR1 (rNPR1) (rat, UniProt P18910 29-469, limits assumed).
T3 construct: Soluble antigen
T3 sequence: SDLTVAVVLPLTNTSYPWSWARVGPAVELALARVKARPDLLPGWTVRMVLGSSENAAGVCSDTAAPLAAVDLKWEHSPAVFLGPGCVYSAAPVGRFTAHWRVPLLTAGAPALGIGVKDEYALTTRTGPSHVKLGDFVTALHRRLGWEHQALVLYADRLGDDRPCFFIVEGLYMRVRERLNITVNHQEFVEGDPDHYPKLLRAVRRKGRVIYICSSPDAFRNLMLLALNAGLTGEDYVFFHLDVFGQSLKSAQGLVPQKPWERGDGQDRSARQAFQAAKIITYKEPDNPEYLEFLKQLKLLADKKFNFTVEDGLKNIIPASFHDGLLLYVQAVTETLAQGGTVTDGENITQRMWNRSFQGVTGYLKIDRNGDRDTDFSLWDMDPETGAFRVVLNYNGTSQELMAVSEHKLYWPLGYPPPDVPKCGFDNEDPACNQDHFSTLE
Kind of assay: SET, FabCys.

Assay [4] has as its target T4, rNPR1-ANP complex (rat, UniProt P01160 124-151 (human entry), limits assumed).
T4 construct: rNPR1 antigen in the presence of ANP; also called rNPR1 + 100 nM ANP
T4 sequence: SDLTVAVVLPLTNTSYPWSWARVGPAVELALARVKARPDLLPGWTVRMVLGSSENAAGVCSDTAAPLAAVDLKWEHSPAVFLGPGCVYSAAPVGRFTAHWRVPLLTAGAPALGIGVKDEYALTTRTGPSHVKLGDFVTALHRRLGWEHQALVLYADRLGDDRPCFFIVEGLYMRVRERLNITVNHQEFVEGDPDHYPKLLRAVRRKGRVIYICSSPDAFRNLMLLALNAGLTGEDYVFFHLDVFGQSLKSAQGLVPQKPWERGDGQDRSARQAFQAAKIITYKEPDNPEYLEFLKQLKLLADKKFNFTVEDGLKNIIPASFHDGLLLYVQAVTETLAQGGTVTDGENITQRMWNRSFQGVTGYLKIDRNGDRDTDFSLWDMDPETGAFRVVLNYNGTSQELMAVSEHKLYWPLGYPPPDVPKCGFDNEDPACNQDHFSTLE
T4 sequence (peptide): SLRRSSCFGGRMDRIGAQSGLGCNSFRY
Kind of assay: SET, FabCys.

Assay [5] deals with T2, hNPR1-ANP complex. Kind of assay: Octet, FabCys.
The target of assay [6] is T3, rat NPR1 (rNPR1). Kind of assay: Octet, FabCys.
Assay [7] deals with T4, rNPR1-ANP complex. Kind of assay: Octet, FabCys.
Assay [8] has as its target T5, human NPR1 on CHO-K1 cells (human, UniProt P16066 33-1061).
T5 sequence: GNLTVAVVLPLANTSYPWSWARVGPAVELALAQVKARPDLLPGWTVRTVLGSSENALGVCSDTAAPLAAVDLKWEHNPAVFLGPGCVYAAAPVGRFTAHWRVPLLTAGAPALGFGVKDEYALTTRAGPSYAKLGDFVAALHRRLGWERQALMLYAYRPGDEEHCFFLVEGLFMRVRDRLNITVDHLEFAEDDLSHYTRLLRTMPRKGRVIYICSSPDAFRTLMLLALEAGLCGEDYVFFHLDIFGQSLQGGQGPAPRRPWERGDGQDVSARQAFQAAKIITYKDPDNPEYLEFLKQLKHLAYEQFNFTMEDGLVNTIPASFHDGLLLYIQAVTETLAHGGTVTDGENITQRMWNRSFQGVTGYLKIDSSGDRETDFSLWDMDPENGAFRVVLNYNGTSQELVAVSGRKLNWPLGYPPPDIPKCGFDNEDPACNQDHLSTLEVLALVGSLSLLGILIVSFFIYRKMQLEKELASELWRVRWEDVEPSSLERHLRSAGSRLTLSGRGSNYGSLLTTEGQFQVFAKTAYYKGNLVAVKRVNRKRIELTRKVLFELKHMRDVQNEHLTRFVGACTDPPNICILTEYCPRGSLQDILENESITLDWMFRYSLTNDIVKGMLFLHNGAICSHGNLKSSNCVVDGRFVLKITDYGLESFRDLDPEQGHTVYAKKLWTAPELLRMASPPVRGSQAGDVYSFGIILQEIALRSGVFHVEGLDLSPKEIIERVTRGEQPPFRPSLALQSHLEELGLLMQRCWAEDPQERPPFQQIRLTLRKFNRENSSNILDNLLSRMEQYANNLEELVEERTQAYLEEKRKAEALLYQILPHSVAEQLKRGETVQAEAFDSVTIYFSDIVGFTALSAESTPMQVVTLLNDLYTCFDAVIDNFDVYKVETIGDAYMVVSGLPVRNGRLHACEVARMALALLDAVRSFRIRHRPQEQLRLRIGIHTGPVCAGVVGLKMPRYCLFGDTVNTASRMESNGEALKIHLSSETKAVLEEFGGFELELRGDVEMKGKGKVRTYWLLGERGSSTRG
Kind of assay: cell-based or functional assay.

Assay [9] concerns the target T1, human Natriuretic Peptide Receptor 1 …. Kind of assay: FabCys affinity (Octet per Table 18 comment).
In assay [10] the target is T2, hNPR1-ANP complex. Kind of assay: FabCys affinity (Octet per Table 18 comment).
Assay [11] concerns the target T4, rNPR1-ANP complex. Kind of assay: FabCys affinity (Octet per Table 18 comment).
The target of assay [12] is T1, human Natriuretic Peptide Receptor 1 …. Kind of assay: FabCys, parental value by Octet (table comment), as in Table 14.
Assay [13] addresses T2, hNPR1-ANP complex. The assay is described as above.
The target in assay [14] is T4, rNPR1-ANP complex. The assay is described as above.
The target of assay [15] is T5, human NPR1 on CHO-K1 cells. Kind of assay: cell-based or functional assay. The source holds these as a separate data set.
The target in assay [16] is T2, hNPR1-ANP complex. Kind of assay: FabCys affinity (Biacore per paragraph 323).
Assay [17] addresses T4, rNPR1-ANP complex. Kind of assay: FabCys affinity (Biacore per paragraph 323).
In assay [18] the target is T2, hNPR1-ANP complex. Kind of assay: FabCys, parental value by Biacore, as in Table 5.
Assay [19] addresses T4, rNPR1-ANP complex. Kind of assay: FabCys, parental value by Biacore, as in Table 5.
Assay [20] addresses T1, human Natriuretic Peptide Receptor 1 …. Kind of assay: FabCys affinity determination.
Assay [21] concerns the target T2, hNPR1-ANP complex. Kind of assay: FabCys affinity determination.
Assay [22] deals with T3, rat NPR1 (rNPR1). Kind of assay: FabCys affinity determination.
The target in assay [23] is T4, rNPR1-ANP complex. Kind of assay: FabCys affinity determination.

B1: ZZ13 (FabCys format) (Fab, V domains shown)
VH: EVQLVESGGGLVQPGGSLRLSCAASGFTFSRYYINWVRQAPGKGLEWVASIHQHGLETRYVESVKGRFTISRDNAKNSLYLQMNSLRAEDTAVYYCARSLRRRSTEHAGFDVWGQGTLVTVSS
VL: DIQMTQSPSSLSASVGDRVTITCRASQGISNYLAWYQQKPGKVPKLLIYAASTLQSGVPSRFSGSGSGTDFTLTISSLQPEDVATYYCQQADKFPYTFGQGTKVEIK
notes: Monovalent FabCys
Regarding B1, the Kd in assay [1] came to 9.9 nM; in the assay with hNPR1-ANP complex [2] it was 1.3 nM; with rat NPR1 (rNPR1) [3], 2.3 nM; in the assay with rNPR1-ANP complex [4] it was 1.4 nM; with hNPR1-ANP complex [5], 0.14 nM; with rat NPR1 (rNPR1) [6], 66 nM. Besides, the dissociation constant Kd in the assay with rNPR1-ANP complex [7] amounted to 0.1 nM.

B2: YY04 (FabCys format) (Fab, V domains shown)
VH: EVQLVESGGGLVKPGGSLRLSCAASGFTFSNYWISWVRQAPGKGLEWVGRIKSKTYGGTTDYAEPVKGRFTISRDDSKNTLYLQMNSLKTEDTAVYYCAREKYSIRARGHGDYGFDVWGQGTLVTVSS
VL: DIQMTQSPSSLSASVGDRVTITCRASQGISNYLAWYQQKPGKVPKLLIYAASTLQSGVPSRFSGSGSGTDFTLTISSLQPEDVATYYCQQGYHAPFTFGQGTKVEIK
notes: Monovalent FabCys
As for B2, the “cGMP conc [nM] at 1 µM FabCys, +0.075 nM ANP” value in assay [8] was determined as 67 nM. Besides, the “cGMP conc [nM] at 1 µM FabCys, without ANP” value in assay [8] amounted to 18 nM. Besides, the Kd stood at 4.9 nM in assay [9]; 1.1 nM with hNPR1-ANP complex [10]; 1 nM in the assay with rNPR1-ANP complex [11]; 4.9 nM in [12]; 1.1 nM in the assay with hNPR1-ANP complex [13]; 1 nM in the assay with rNPR1-ANP complex [14].

B3: WW01 (FabCys format) (Fab, V domains shown)
VH: QVQLLESGGGLVQPGGSLRLSCAASGFTFNTHYIHWVRQAPGKGLEWVSSISGSGSNTYYADSVKGRFTISRDNSKNTLYLQMNSLRAEDTAVYYCARERGYVYYHMFDPWGQGTLVTVSS
VL: DIVLTQSPATLSLSPGERATLSCRASQSITRNYLAWYQQKPGQAPRLLIYGASSRATGIPARFSGSGSGTDFTLTISSLEPEDFAVYYCQQHSMYPRTFGQGTKVEIK
notes: Monovalent disulfide-bridged FabCys
For B3, the “cGMP conc [nM] at 2 µM FabCys, +0.075 nM ANP” value in assay [15] came out at 121 nM. Besides, the “cGMP conc [nM] at 2 µM FabCys, without ANP” value in [15] was 30 nM. In addition, the Kd with hNPR1-ANP complex [16] worked out at 1.5 nM; in the assay with rNPR1-ANP complex [17], 2 nM; in the assay with hNPR1-ANP complex [18], 1.5 nM; with rNPR1-ANP complex [19] it was 2 nM.

B4: YY02 (FabCys format) (Fab, V domains shown)
VH: EVQLVESGGGLVKPGGSLRLSCAASGFTFSSYSMNWVRQAPGKGLEWVSSISSSSSYIYYADSVKGRFTISRDNAKNSLYLQMNSLRAEDTAVYYCARSGYRGVYGFDYWGQGTLVTVSS
VL: DIQMTQSPSSVSASVGDRVTITCRASQGISSWLAWYQQKPGKAPKLLIYAASSLQSGVPSRFSGSGSGTDFTLTISSLQPEDFATYYCQQYYHSPLTFGQGTKVEIK
notes: Monovalent FabCys
As for B4, the equilibrium dissociation constant (Kd) in assay [20] is 45 nM; with hNPR1-ANP complex [21], 1.1 nM; in the assay with rat NPR1 (rNPR1) [22], 280 nM; in the assay with rNPR1-ANP complex [23] it was 4.4 nM.
